Data set [1] concerns the target DnaD^L22A, purified recombinant (B. subtilis) (UniProt P39787). Kind of data set: SEC-MALS; 20°C; 40 mM Tris-HCl pH 8, 500 mM NaCl, 1 mM EDTA, 20 mM imidazole, 2.5% glycerol; 100 μl injected.
Data set [2] concerns the molecule itself. Kind of data set: cross-linking; BS3, 250 nM protein, 500x molar excess BS3, 6 min at 20°C, 20 mM HEPES pH 7.2, 100 mM NaCl, 10 mM magnesium acetate; SDS-PAGE and anti-DnaD immunoblot. (In general: A western blot detects proteins with antibodies after separation by electrophoresis.)
Data set [3] concerns the molecule itself. Kind of data set: SEC-MALS; 20°C; 40 mM Tris-HCl pH 8, 500 mM NaCl, 1 mM EDTA, 20 mM imidazole, 2.5% glycerol; 100 μl injected.

What is called stoichiometry N is the number of molecules, sites or subunits per partner or assembly. For the molecule “DnaD^L22A, purified recombinant (from UniProt P39787 1-232) (natural protein)”, in data set [1], the percent present as monomer is above 50% and the stoichiometry N was found to be 4.

B1: DnaD^F6A, purified recombinant (natural protein, B. subtilis, UniProt P39787 1-232, looked up)
chain: MKKQQAIDMQEQGTSTIPNLLLTHYKQLGLNETELILLLKIKMHLEKGSYFPTPNQLQEGMSISVEECTNRLRMFIQKGFLFIEECEDQNGIKFEKYSLQPLWGKLYEYIQLAQNQTQERKAEGEQKSLYTIFEEEFARPLSPLECETLAIWQDQDQHDAQLIKHALKEAVLSGKLSFRYIDRILFEWKKNGLKTVEQAKIHSQKFRRVQAKQNEPQKEYKRQVPFYNWLEQ
notes: DnaD, B. subtilis 168CA, with F6A; made from pSF17 by Quickchange; source: E. coli BL21(DE3)-pLysS, purified (HisTrap, SUMO protease digestion, reverse HisTrap)
Turning to B1, the “stoichiometry N” value in data set [2] is 2.

B2: DnaD, wild type, purified recombinant (natural protein, B. subtilis, UniProt P39787 1-232, looked up)
chain: MKKQQFIDMQEQGTSTIPNLLLTHYKQLGLNETELILLLKIKMHLEKGSYFPTPNQLQEGMSISVEECTNRLRMFIQKGFLFIEECEDQNGIKFEKYSLQPLWGKLYEYIQLAQNQTQERKAEGEQKSLYTIFEEEFARPLSPLECETLAIWQDQDQHDAQLIKHALKEAVLSGKLSFRYIDRILFEWKKNGLKTVEQAKIHSQKFRRVQAKQNEPQKEYKRQVPFYNWLEQ
notes: DnaD, B. subtilis 168CA; dnaD amplified from genomic DNA and cloned into pSF17; The printed theoretical mass of the tetramer (110 kDa) fits the whole protein; also called Wild-type DnaD; source: E. coli BL21(DE3)-pLysS, purified (HisTrap, SUMO protease digestion, reverse HisTrap)
Take B2: the “stoichiometry N” value in data set [3] worked out at 4.

B3: DnaD^K3A, purified recombinant (natural protein, B. subtilis, UniProt P39787 1-232, looked up)
chain: MKAQQFIDMQEQGTSTIPNLLLTHYKQLGLNETELILLLKIKMHLEKGSYFPTPNQLQEGMSISVEECTNRLRMFIQKGFLFIEECEDQNGIKFEKYSLQPLWGKLYEYIQLAQNQTQERKAEGEQKSLYTIFEEEFARPLSPLECETLAIWQDQDQHDAQLIKHALKEAVLSGKLSFRYIDRILFEWKKNGLKTVEQAKIHSQKFRRVQAKQNEPQKEYKRQVPFYNWLEQ
notes: DnaD, B. subtilis 168CA, with K3A; made from pSF17 by Quickchange; source: E. coli BL21(DE3)-pLysS, purified (HisTrap, SUMO protease digestion, reverse HisTrap)
Consider B3, for which the “stoichiometry N” value in data set [2] was determined as 2.

The record behind these values is publication PMC10201431, “SirA inhibits the essential DnaA:DnaD interaction to block helicase recruitment during Bacillus subtilis sporulation” (Nucleic Acids Research, 2022).
